Data taken from US20020142982.

Assays:
[1] = molecular target: T236A EDG-1 mutant receptor (UniProt P21453)
[2] = molecular target: R233K EDG-1 mutant receptor (UniProt P21453)
[3] = molecular target: R231K EDG-1 mutant receptor (UniProt P21453)
[4] = molecular target: Flag-tagged wild-type EDG-1 receptor (UniProt P21453)
[5] = molecular target: glutathione S-transferase (GST)-EDG-1-i3 (UniProt P21453)
[6] = test system: GST-i3 polypeptide from EDG-5 [GST: P08515]
GST-i3T236V polypeptide = GST-i3T236V polypeptide (UniProt P21453)
[7] = molecular target: GST-i3 polypeptide from EDG-3 (UniProt Q99500)
GST-i3 polypeptide from EDG-3, sequence (Q99500 217-243): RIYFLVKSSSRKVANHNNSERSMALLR

R233K EDG-1 mutant receptor, sequence (P21453 whole entry R233K): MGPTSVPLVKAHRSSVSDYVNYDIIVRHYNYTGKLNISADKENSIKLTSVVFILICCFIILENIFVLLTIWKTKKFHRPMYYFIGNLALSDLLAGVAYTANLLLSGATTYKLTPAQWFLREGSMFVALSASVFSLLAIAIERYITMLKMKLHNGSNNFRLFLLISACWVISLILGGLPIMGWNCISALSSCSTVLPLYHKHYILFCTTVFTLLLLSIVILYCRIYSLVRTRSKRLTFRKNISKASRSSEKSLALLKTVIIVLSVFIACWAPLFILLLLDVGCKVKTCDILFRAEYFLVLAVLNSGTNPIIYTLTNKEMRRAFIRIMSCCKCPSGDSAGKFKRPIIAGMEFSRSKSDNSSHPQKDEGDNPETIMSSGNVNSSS
Flag-tagged wild-type EDG-1 receptor, sequence (P21453 whole entry): as the sequence (P21453 whole entry R233K) above, with K233R counted along it
T236A EDG-1 mutant receptor, sequence (P21453 whole entry T236A): as the sequence (P21453 whole entry R233K) above, with K233R, T236A counted along it
R231K EDG-1 mutant receptor, sequence (P21453 whole entry R231K): as the sequence (P21453 whole entry R233K) above, with R231K, K233R counted along it
glutathione S-transferase (GST)-EDG-1-i3, sequence (P21453 other isoform, or with tags, fused parts or gaps): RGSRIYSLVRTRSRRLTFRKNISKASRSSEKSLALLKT
GST-i3T236V polypeptide, sequence (P21453 whole entry T236V, looked up, tested part not stated): as the sequence (P21453 whole entry R233K) above, with K233R, T236V counted along it
GST-i3 polypeptide from EDG-5 [GST: P08515], sequence (P08515 whole entry, looked up): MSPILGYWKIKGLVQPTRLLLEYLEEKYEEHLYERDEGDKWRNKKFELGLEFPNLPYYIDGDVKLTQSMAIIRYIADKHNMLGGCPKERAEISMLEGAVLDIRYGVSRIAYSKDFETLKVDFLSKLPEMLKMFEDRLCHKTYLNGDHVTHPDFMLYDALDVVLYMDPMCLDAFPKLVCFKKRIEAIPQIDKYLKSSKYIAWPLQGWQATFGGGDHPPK

p90^RSK (active kinase)
in vitro phosphorylation of immunoprecipitated receptor [1]: in vitro phosphorylation with p90^RSK was similar in wild-type as well as in the three mutants | in vitro phosphorylation of immunoprecipitated receptor [2]: in vitro phosphorylation with p90^RSK was similar in wild-type as well as in the three mutants | in vitro phosphorylation of immunoprecipitated receptor [3]: in vitro phosphorylation with p90^RSK was similar in wild-type as well as in the three mutants | in vitro phosphorylation of immunoprecipitated receptor [4]: in vitro phosphorylation with p90^RSK was similar in wild-type as well as in the three mutants

recombinant, active Akt
in vitro phosphorylation (32P incorporation, SDS-PAGE) [5]: only the GST-EDG-1-i3 was phosphorylated by Akt | in vitro phosphorylation of immunoprecipitated receptor [1]: All three mutants were phosphorylated very poorly by the active Akt kinase in an in vitro phosphorylation reaction when compared to the wild-type EDG-1 | in vitro phosphorylation of immunoprecipitated receptor [2]: All three mutants were phosphorylated very poorly by the active Akt kinase in an in vitro phosphorylation reaction when compared to the wild-type EDG-1 | in vitro phosphorylation (32P incorporation, SDS-PAGE) [6]: only the GST-EDG-1-i3 was phosphorylated by Akt | in vitro phosphorylation of immunoprecipitated receptor [3]: All three mutants were phosphorylated very poorly by the active Akt kinase in an in vitro phosphorylation reaction when compared to the wild-type EDG-1 | in vitro phosphorylation of immunoprecipitated receptor [4]: All three mutants were phosphorylated very poorly by the active Akt kinase in an in vitro phosphorylation reaction when compared to the wild-type EDG-1 | in vitro phosphorylation (32P-phosphate incorporation) (GST-i3T236V polypeptide): ^32P-phosphate incorporation into the GST-i3T236V polypeptide was significantly reduced upon incubation with Akt | in vitro phosphorylation (32P incorporation, SDS-PAGE) [7]: only the GST-EDG-1-i3 was phosphorylated by Akt
